Data taken from US20210130436A1.

Target: human PD-L1, full length, expressed on transfected HEK293 cells (human) (UniProt Q9NZQ7)
Test: flow cytometry, HEK293 cells transfected with human PD-L1

human PD-L1, full length, expressed on transfected HEK293 cells (human), sequence (Q9NZQ7 19-290): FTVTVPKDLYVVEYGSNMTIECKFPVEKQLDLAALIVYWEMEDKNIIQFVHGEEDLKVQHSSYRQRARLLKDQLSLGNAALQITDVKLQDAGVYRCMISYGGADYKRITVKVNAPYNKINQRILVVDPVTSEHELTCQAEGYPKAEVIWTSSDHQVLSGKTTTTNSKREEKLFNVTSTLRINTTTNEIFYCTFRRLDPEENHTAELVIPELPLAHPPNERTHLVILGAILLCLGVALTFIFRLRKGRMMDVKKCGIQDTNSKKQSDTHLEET

- MFI at 22.2 nM: 1220 MFI
B1: variant CD80 IgV-Fc A12T/E24D/E35D/D46V/I61V/L72P/E95V (Fc fusion, not shown: a dimerising Fc or GST)
chain: VIHVTKEVKEVTTLSCGHNVSVEDLAQTRIYWQKDKKMVLTMMSGVMNIWPEYKNRTIFDVTNNLSIVILAPRPSDEGTYECVVLKYEKDAFKRVHLAEVTLSVKAD
